The supplement of paper PMC10126150
± gives the standard deviation of the averaged measurements.

System: ATP
Assay: switch fluorescence ratio, 500 uM ATP over buffer (Cy3 cluster intensity, sum of 5 cycles each) (fold (ratio)); higher = stronger signal-on switching upon ATP binding; sequences stand for … in TCGTCGGCAGCGTCAGATGTGTATAAGAGACAGTTTTTTTTTTTTTTTTTTTTTTTTT…TC
Conditions: aptamer strand: ATP DNA aptamer (quencher-CACCTGGGGGAGTATTGCGGAGGAAGG + anchor), 100 nM annealed; ATP concentration: 500 uM
Procedure, shortened: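 Imaging in selection buffer was followed by imaging after 15 min with 500 uM ATP at 22 °C, for Cy3-labelled switching-strand clusters annealed to 100 nM quencher-labelled ATP aptamer on a modified Illumina MiSeq flow-cell. Five of these buffer/ATP cycles ran, separated by NaOH stripping and re-annealing. The fluorescence ratio per cluster is summed target-cycle over summed buffer-cycle Cy3 intensity, averaged per switch-domain sequence; clusters outside 100-1000 RFU were removed.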
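Also: ATP exposure 15 min at 22 °C before imaging.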

Sequence | switch fluorescence ratio
CGGTAGGGGA | 1.023 ± 0.01
AGGGATTTGG | 0.987 ± 0.014
TGCAGCTAGC | 1.05 ± 0.021
TTTCAGCTTA | 1.15 ± 0.15
TTTCGGATTC | 1.08 ± 0.059
GAGCTAGAAA | 1.05 ± 0.065
CCTGTGGCAC | 1.21 ± 0.054
CAAGAATCTG | 0.9606 ± 0.0091
TAGGATTAAT | 0.999 ± 0.012
TGGTCAGCTA | 1.02 ± 0.025
GACATTCACT | 1.108 ± 0.0088
GAAGGAGTGC | 1.07 ± 0.018
TTAAGGCATT | 1.06 ± 0.03
TGAGGGGTAA | 0.993 ± 0.042
AGGTTCACCC | 1.07 ± 0.08
TCGAGTAGGG | 0.995 ± 0.016
GAGACAAGGA | 0.97095 ± 8.1e-05
GCGTTATATT | 1 ± 0.018
TCTTACGCCA | 1.06 ± 0.016
GTTCAAAAGC | 0.98 ± 0.034
TTTTTCAACC | 1.02 ± 0.017
TTAATTTACT | 1.08 ± 0.043
TCGTTTTAGC | 1.004 ± 0.0032

Sequence | switch fluorescence ratio
GGGAGGATGC | 0.993 ± 0.059
TATGGCATGG | 1 ± 0.05
ATGGGCCCGT | 1.01 ± 0.1
ATCGGGCTGC | 1 ± 0.038
TATGGGGAGT | 0.981 ± 0.046
TTTTGCTTGT | 0.996 ± 0.015
AACCCTTTCA | 1.06 ± 0.035
CGCCGGCTTT | 1.019 ± 0.0085
TGCAAGTTTG | 1 ± 0.017
GGGAGGTCAG | 0.992 ± 0.035
AGGGGTACTG | 1.01 ± 0.099
GAACTGGGGC | 0.942 ± 0.076
TTAGGAAGTG | 0.999 ± 0.017
GGATGAGTGT | 0.982 ± 0.038
TCCGGCGTGC | 1.13 ± 0.23
CTTAACAGCG | 1.01 ± 0.02
TGTTGCGCTT | 1.033 ± 0.007
TAAAAAAAGC | 1.031 ± 0.0015
ACGGGACTAG | 1.02 ± 0.099
TGAGTTGGGT | 0.986 ± 0.019
TACTGTTCGA | 1.05 ± 0.016
TCAGAGTGCT | 1.03 ± 0.025
GGGATATGGG | 0.995 ± 0.045

Sequence | switch fluorescence ratio
GTGGTCTGCC | 0.958 ± 0.0044
GATTGTGATG | 0.9724 ± 0.0055
GACGGGATTG | 1.015 ± 0.006
TTATGGAATT | 1.01 ± 0.044
ATTGAACCGG | 1.04 ± 0.012
GGGGGAGTTA | 0.989 ± 0.026
TTGTGTGTTA | 0.9687 ± 0.0052
CCTCGGTTTT | 1.24 ± 0.013
AATATTTAGG | 0.987 ± 0.035
GGCCTTGTGT | 1.0357 ± 0.00094
GTACTGGATT | 0.988 ± 0.035
GACGCGGGTC | 1.13 ± 0.026
TTATGTTTG | 1.012 ± 0.0031
GTAGCTATAT | 4.08 ± 0.14
TAAAAAGCGG | 1.01 ± 0.054
ACCGGCCAGC | 1.002 ± 0.004
TGGGGGAATC | 1.02 ± 0.046
AAAATATGGT | 1.01 ± 0.033
TAGGGCGGAG | 0.957 ± 0.025
AGAGGGGGGA | 1.02 ± 0.041
TTTCTGTGGA | 0.9892 ± 0.0091
GCTATAGAGG | 0.9846 ± 0.0072
AGTTTGATGG | 0.99 ± 0.087

Sequence | switch fluorescence ratio
ACAGGGGTTG | 0.978 ± 0.033
GTTATCTTAG | 1.01 ± 0.025
TTTTAGCTGG | 1 ± 0.015
ACGGGTAATC | 1.071 ± 0.0095
AAGTTTTATC | 0.989 ± 0.021
TACACGGTCA | 1.047 ± 0.0054
CCTGGGCTGT | 1.52 ± 0.48
TCGGGTTTTC | 1 ± 0.039
GACATTATAT | 1.028 ± 0.0025
GCAGACGTTC | 1.012 ± 0.005
ATTAGTACTT | 0.987 ± 0.015
TTTTATTTTT | 0.997 ± 0.028
TTGATTAGTT | 0.982 ± 0.036
AAGGTCAAGC | 1 ± 0.063
TAGTCTGGGC | 0.986 ± 0.037
TTGAGGGGTG | 0.996 ± 0.037
TAATGTTCTC | 1.02 ± 0.011
TTTGTCGTAA | 0.999 ± 0.0014
TTAGTTTTCG | 1.01 ± 0.02
AGAAAAAACG | 1.05 ± 0.092
TTGGGGAACA | 1.014 ± 0.008
ATTATGTTCT | 1.01 ± 0.013
GCAGGCCGAG | 1.05 ± 0.037

Sequence | switch fluorescence ratio
CGGTGTGCGG | 0.995 ± 0.037
GGGTTTTAGC | 1.03 ± 0.076
ACCGCACGGA | 1.55 ± 0.29
TTTATTGTCA | 0.987 ± 0.029
TTCAGGGGTT | 1.04 ± 0.068
TTACGAGATT | 1.01 ± 0.068
AATGTGCGTT | 0.993 ± 0.04
ATGTCAGATT | 1.01 ± 0.037
ATATCTATGG | 0.994 ± 0.025
AATGGTGGCT | 1.11 ± 0.099
CGGACGAAAG | 1.02 ± 0.048
GTGTTATGCA | 1.01 ± 0.021
TCGGCAAGTT | 1.2 ± 0.33
ATTAAATCCG | 1.042 ± 0.0099
TATTTTTATT | 1.01 ± 0.021
GTTGATTTTA | 0.972 ± 0.014
GGATCGTTCC | 1.1 ± 0.017
TGAGCCTTAG | 1.09 ± 0.05
CAGTAATTGC | 1.05 ± 0.023
GTGTGCACGC | 1.05 ± 0.065
TCCACGGTCT | 1.0273 ± 0.00046
CAGTAAGTCT | 1.05 ± 0.076
CATATCCAGG | 1.34 ± 0.017

Sequence | switch fluorescence ratio
AGGGCGACG | 1.05 ± 0.079
GGGCATCGAC | 1.05 ± 0.017
AAGTCGAAGT | 0.98568 ± 0.00082
TTAACGGGGT | 1.04 ± 0.073
CAGGGTGGTC | 1.04 ± 0.0048
GGGTTATTGA | 0.995 ± 0.01
TATTAGTGGC | 0.9403 ± 0.0088
TATAGGGGGA | 1.04 ± 0.024
ATAAGCAGGA | 1.02 ± 0.017
CCAGGAGTCA | 1.032 ± 0.0017
GTAAGAGTGC | 1.03 ± 0.026
CCACCAATTT | 1.8 ± 1.2
ATCGGTGTTG | 1.02 ± 0.035
TAGGGGATTG | 1 ± 0.02
GTATAAAGGG | 1.02 ± 0.048
TATCTAGGGG | 0.981 ± 0.035
GTTTTACCGG | 1 ± 0.022
GCATTGAGGT | 1 ± 0.013
CTGACGAAGG | 1.05 ± 0.029
AGCATCATTT | 0.971 ± 0.024
TAATTAACAT | 0.9883 ± 0.0092
CAGTAGAATA | 1.02 ± 0.022
GATTATTAGC | 0.9999 ± 0.004

Sequence | switch fluorescence ratio
TGCATTGTTT | 0.999 ± 0.015
ACCATTGGTG | 1.12 ± 0.013
AAAAAAATTT | 1 ± 0.029
TGTTGGAGGT | 1.02 ± 0.045
CAATGATTGA | 1.02 ± 0.018
TGGGGGATGG | 0.996 ± 0.057
AGCATTAATT | 0.988 ± 0.043
GGGGACTTAG | 0.9854 ± 0.0025
GGGTGGACGG | 0.993 ± 0.06
GCTGCTGTTG | 1.06 ± 0.049
CAATGGAGGA | 1.011 ± 0.0058
GAATTCTATG | 0.997 ± 0.042
TATGTGTTTT | 1.031 ± 0.0034
TCATGTTATG | 0.971 ± 0.065
GAATGAACCA | 0.998 ± 0.049
GGTAGGGCGT | 1.01 ± 0.027
TTTTAGTACT | 0.99 ± 0.036
TACGATGAGG | 1.05 ± 0.018
TTCAGGTGTG | 1.142 ± 0.0073
